In the supplement of paper PMC7125110:
± gives the standard error. Variants at the floor of the assay were thinned out.

B1: glmS ribozyme (parent)
chain: AUAAAAGCGCCAGAACUACAGAAAUGUAGUUGACGAGGAGGAGGUUUAUCGAAUUUUCGGCGGAUGCCUCCAAA

Key:
Details in all cases: with glucosamine-6-phosphate
[1] = variants of: B1; assay: self-cleavage kobs at 40 uM GlcN6P; higher = faster cleavage; RNA array
Outline: (§1)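 Tiles of sequenced MiSeq chips were imaged over ~14 h at 37 °C. On them, barcoded ribozyme variants had been transcribed in situ by E. coli RNA polymerase and were tracked via a hybridised Cy3 probe while glucosamine-6-phosphate (40 μM to 10 mM) in HEPES/KCl/Mg(OAc)2 buffer flowed in. Per-tile medians, normalised to baseline and to non-cleaving reference variants, were fit to one- or two-exponential decays for kobs, and weighted Michaelis–Menten fits gave kcat and KM.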

[2] = variants of: B1; assay: self-cleavage kobs at 2500 uM GlcN6P; higher = faster cleavage; RNA array
Outline: as §1

[3] = variants of: B1; assay: self-cleavage kobs at 10000 uM GlcN6P; higher = faster cleavage; RNA array
Outline: as §1

[4] = variants of: B1; assay: self-cleavage kobs at 160 uM GlcN6P; higher = faster cleavage; RNA array
Outline: as §1

[5] = variants of: B1; assay: self-cleavage kobs at 640 uM GlcN6P; higher = faster cleavage; RNA array
Outline: as §1

Variant | self-cleavage kobs at 40 uM GlcN6P [1] [s⁻¹] | self-cleavage kobs at 2500 uM GlcN6P [2] [s⁻¹] | self-cleavage kobs at 10000 uM GlcN6P [3] [s⁻¹] | self-cleavage kobs at 160 uM GlcN6P [4] [s⁻¹] | self-cleavage kobs at 640 uM GlcN6P [5] [s⁻¹]
AUAAAAGCGCCAGAACUACAGAAAUGUAGUUGAUGAAGAGGAGGUUUAUCGAAUUUUCGGCGGAUGCCUCCAAA [C34U G37A] | < 1e-05 | < 1e-05 | < 1e-05 |  | 
AUAAAAGCGCCAGAACUACAGAAAUGUAGUUGAUGAGGAUGAGGUUUAUCGAAUUUUCGGCGGAUGGCUCCAAA [C34U G40U C67G] | < 1e-05 | < 1e-05 | < 1e-05 |  | 
AUAAAAGCGCCAGAACUACAGAAAUGUAGUUGAUGAGGAGGAGGUUUAUCGAAUUUUCGUCGGAUGCCUCCAAA [C34U G60U] | < 1e-05 | < 1e-05 | < 1e-05 | < 1e-05 | < 1e-05
AUAAAAGCGCCAGAACUACAGAAAUGUAGUUGAUGAGGAGGAGGUUUAUCGGAUUUUCGGCGGAUGCCUCCAAA [C34U A52G] | < 1e-05 |  | < 1e-05 | < 1e-05 | 
AUAAAAGCGCCAGAACUACAGAAAUGUAGUUGAUGAGGAGGAGGUUUAUCGAGUUUUCGGCGGAUGCCUCCAAA [C34U A53G] | < 1e-05 |  | < 1e-05 |  | 
AUAAAAGCGCCAGAACUACAGAAAUGUAGUUGAGGAGGAGGAGGUUUAUCCAAUUUUCGGCGGAUGCCUCCAAA [C34G G51C] | < 1e-05 |  | < 1e-05 |  | < 1e-05
AUAAAAGCGCCAGAACUACAGAAAUGUAGUUGAUGAGGGGGAGGUUUAUCGAAUUUUCGGCGGAUGCCUCCAAA [C34U A39G] | < 1e-05 | < 1e-05 | < 1e-05 | < 1e-05 | < 1e-05
AUAAAAGCGCCAGAACUACAGAAAUGUAGUUGAUGAGGAUGAGGUUUAUCGAAUUUUCGGCGGAUGCCUCCAAA [C34U G40U] | < 1e-05 | < 1e-05 | < 1e-05 | < 1e-05 | 
AUAAAAGCGCCAGAACUACAGAAAUGUAGUUGAUGAGGAGAAGGUUUAUUGAAUUUUCGGCGGAUGCUUCCAAA [C34U G41A C50U C68U] | < 1e-05 | < 1e-05 |  |  | 
AUAAAAGCGCCAGAACUACAGAAAUGUAGUUGAUGAGGAGGAGGUUUAUCUAACUUGCGGCGGAUGCCUCCAAA [C34U G51U U54C U57G] | < 1e-05 | < 1e-05 |  |  | 
AUAAAAGCGCCAGAACUACAGAAAUGUAGUUGAUGAGGAGGAGGUUUAUCUAAUUUUCGGCGGAUGCCUCCAAA [C34U G51U] | < 1e-05 |  |  | < 1e-05 | < 1e-05
AUAAAAGCGCCAGAACUACAGAAAUGUAGUUGAUGAGGAGGAGGUUUAUCGAAUUUUCGGAGGAUGUCUCCAAA [C34U C61A C67U] | 0.00014 ± 3.8e-05 | 5.38e-05 ± 2.6e-05 | 0.000236 ± 6.1e-05 |  | 0.000388 ± 0.00011
AUAAAAGCGCCAGAACUACAGAAAUGUAGUUGAUGAGGAGGAGGUUUAUCGAAUCUUCGGCGGAUGCCUCCAAA [C34U U55C] | < 1e-05 | < 1e-05 | < 1e-05 | < 1e-05 | < 1e-05
AUAAAAGCGCCAGAACUACAGAAAUGUAGUUGAGGAGGAGGAGGUUUAUCGAAUUUUCGGCGCAUGCCUCCAAA [C34G G63C] | < 1e-05 |  | < 1e-05 | < 1e-05 | < 1e-05
AUAAAAGCGCCAGAACUACAGAAAUGUAGUUGAGGAGGAGGAGGUUUAUCGAAUUUUCGGCGGACGCCUCCAAA [C34G U65C] | < 1e-05 |  | < 1e-05 |  | < 1e-05
AUAAAAGCGCCAGAACUACAGAAAUGUAGUUGAUUAGGAGGAGGUUUAUCGAAUUUUCGGCGGAUGCCUCCAAA [C34U G35U] | < 1e-05 | < 1e-05 | < 1e-05 | < 1e-05 | < 1e-05
AUAAAAGCGCCAGAACUACAGAAAUGUAGUUGAGGAGGAGGAGGAUUAUCGAAUUUUCGGCGGAUGCCUCCAAA [C34G U45A] | < 1e-05 | < 1e-05 | < 1e-05 | < 1e-05 | < 1e-05
AUAAAAGCGCCAGAACUACAGAAAUGUAGUUGAUGAGGAGGAGGUUUAUCGAAUUUUCGGCGGAUUCCUCCAAA [C34U G66U] | < 1e-05 |  | < 1e-05 | < 1e-05 | 
AUAAAAGCGCCAGAACUACAGAAAUGUAGUUGAUGAGGAGGAGGUUUAUCGAAUUUUCAGCGGAUGCCUCCAAA [C34U G59A] | < 1e-05 | < 1e-05 |  |  | < 1e-05
AUAAAAGCGCCAGAACUACAGAAAUGUAGUUGAUGAGGAGAAGGUUUAUCGAAUUUUCGGCGGAUGCAUCCAAA [C34U G41A C68A] | < 1e-05 |  | < 1e-05 |  | 
AUAAAAGCGCCAGAACUACAGAAAUGUAGUUGAUGAGGAUGAGGUUUAUUGAAUUUUCGGCGGAUGCCUCCAAA [C34U G40U C50U] | < 1e-05 |  | < 1e-05 |  | < 1e-05
AUAAAAGCGCCAGAACUACAGAAAUGUAGUUGAUGAGGAGGAGGUUUAUCGAAUUUUGGGCGGAUGCUUCCAAA [C34U C58G C68U] | 0.000265 ± 9.2e-05 |  | 0.000425 ± 0.00014 |  | 
